Source: US20030044888, “NOVEL STEROID-ACTIVATED NUCLEAR RECEPTORS AND USES THEREFOR” (published 2003)

Molecular target: SXR/RXR heterodimer (Homo sapiens, UniProt O75469;P19793 O75469:1-434,P19793:1-462)
Experiment: EMSA; mutations prevented heterodimer binding; 10 mM Tris pH 8, 100 mM KCl, poly dI:dC, room temp
Conditions: tags: TNT (Promega); SXR initiator Leu changed to Met
Experimental: Electrophoretic mobility shift assays were performed using in vitro transcribed, translated proteins (TNT, Promega ). Proteins (1 μl each) were incubated for 20 minutes at room temperature with 100,000 cpm of Klenow-labeled probes in 10 mM Tris pH 8, 100 mM KCl, 6% glycerol, 0.05% NP-40, 1 mM dithiothreitol (DTT), 100 ng/μl poly dI:dC (Pharmacia, Piscataway, N.J.) and then electrophoresed through a 5% polyacrylamide gel in 0.5× TBE (45 mM Tris-base, 45 mM boric acid, 1 mM ethylenediaminetetraacetic acid (EDTA) at room temperature. For competition binding, protein plus unlabeled oligonucleotides at five or fifty fold molar excess were preincubated for ten minutes on ice, then labeled probes were added and incubated for 20 minutes at room temperature. Electrophoresis was as above. The IR series oligonucleotides tested had the following sequences: […]

SXR/RXR heterodimer, sequence (O75469 whole entry, chain 1 of 2): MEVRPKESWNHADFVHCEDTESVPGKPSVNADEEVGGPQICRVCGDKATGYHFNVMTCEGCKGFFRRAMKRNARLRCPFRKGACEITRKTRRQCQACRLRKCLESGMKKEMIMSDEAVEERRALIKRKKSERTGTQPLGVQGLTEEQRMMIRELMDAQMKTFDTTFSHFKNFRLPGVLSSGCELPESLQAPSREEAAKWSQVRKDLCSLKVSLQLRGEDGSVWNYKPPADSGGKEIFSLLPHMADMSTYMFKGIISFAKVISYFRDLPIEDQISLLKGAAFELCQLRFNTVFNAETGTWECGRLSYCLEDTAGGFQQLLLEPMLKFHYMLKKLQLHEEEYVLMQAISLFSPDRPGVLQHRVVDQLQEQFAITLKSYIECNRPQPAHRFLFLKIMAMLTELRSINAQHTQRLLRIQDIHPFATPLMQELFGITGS
SXR/RXR heterodimer, sequence (P19793 whole entry, chain 2 of 2): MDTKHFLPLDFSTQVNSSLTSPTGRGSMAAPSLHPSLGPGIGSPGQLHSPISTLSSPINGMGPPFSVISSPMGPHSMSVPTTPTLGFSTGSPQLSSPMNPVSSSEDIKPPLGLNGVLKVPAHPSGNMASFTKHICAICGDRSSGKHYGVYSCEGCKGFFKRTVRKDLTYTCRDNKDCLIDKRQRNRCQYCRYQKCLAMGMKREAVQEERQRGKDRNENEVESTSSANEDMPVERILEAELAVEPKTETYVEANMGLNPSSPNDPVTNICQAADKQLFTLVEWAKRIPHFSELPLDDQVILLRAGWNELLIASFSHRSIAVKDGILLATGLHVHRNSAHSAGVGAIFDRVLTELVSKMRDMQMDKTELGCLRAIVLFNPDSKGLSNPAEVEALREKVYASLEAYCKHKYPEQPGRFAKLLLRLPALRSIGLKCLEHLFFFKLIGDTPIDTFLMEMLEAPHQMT

B1: IR-M (dsDNA)
DNA 1: AGCTTACGTCATGACGTA
DNA 2: TACGTCATGACGTAAGCT
Does B1 bind?
Result: no binding
